Positions of bridges follow the written chain, without caps; N, C: chain ends. Non-standard residues stand in square brackets, D forms with d. Residues, ends and D or L forms follow the SMILES beside them. Triazole bridges read from a SMILES are 1,4-linked. No end group written: not given here. ξ: configuration not given here. dPhe(4-guanidino) = N=C(N)Nc1ccc(C[C@@H](N)C(=O)O)cc1; Phe(4-guanidino) = N=C(N)Nc1ccc(C[C@H](N)C(=O)O)cc1; ξLys(N3) = [N-]=[N+]=NCCCCC(N)C(=O)O; Aha = [N-]=[N+]=NCC[C@H](N)C(=O)O; Pra = C#CC[C@H](N)C(=O)O
Tests used:
[1] = molecular target: T1, KRAS (G12D) (Homo sapiens, UniProt P01116, G12D); assay: ELISA binding of cyclic peptides to KRAS (G12D); conditions: absorbance units; for ELISA binding compared with LRGGnf: FIG. 3 and FIG. 4, 5 μM and 20 μM peptide, KRAS (WT) and KRAS (G12D)
Procedure: FIG. 2 is a graph of a single point ELISA assay comparing the binding (measured in absorbance units, A.U.) of cyclic peptide 7b10 (LRGDGnf; SEQ ID NO:5) and LRGGnf (SEQ ID NO:4) to KRAS (WT) and KRAS (G12D).
(§1) FIG. 3 is a graph of ELISA assays of four peptides (LRGGnf (SEQ ID NO:4), LRG (F—Br) (SEQ ID NO:6), LRGGnf-Az3 (SEQ ID NO:4), and LRGGnf-Az2 (SEQ ID NO:4)) at two different concentrations (5 μM and 20 μM) to KRAS (WT) and KRAS (G12D) comparing the binding (measured in absorbance units, A.U.). […] All of the cyclic peptides show preferential binding to KRAS (G12D) over KRAS (WT).
as §1, with “4” for “3”, “(QDNY” for “(LRGGnf”, “NO:14), QNGnfY” for “NO:4), LRG (F—Br)”, “NO:24), QQGnfGnf” for “NO:6), LRGGnf-Az3”, “NO:3),” for “NO:4),”, “LRGGnf” for “LRGGnf-Az2”

[2] = molecular target: KRAS (WT) (Homo sapiens, UniProt P01116); assay: EC50 for KRAS (WT); assay type: binding
[3] = molecular target: T1, KRAS (G12D); assay: EC50 for KRAS (G12D); assay type: binding

Molecule	ELISA binding compared with LRGGnf [1]	other results
CC(C)C[C@@H]1NC(=O)[C@@H](N)Cc2cn(nn2)CC[C@@H](C(N)=O)NC(=O)[C@H](Cc2ccc(NC(=N)N)cc2)NC(=O)CNC(=O)[C@H](CCCNC(=N)N)NC1=O [LRGGnf-Az2] (H-[Pra]LRG[Phe(4-guanidino)][Aha]-NH2; triazole 1-6; N-terminus and C-terminus assumed)	slightly better	
N=C(N)Nc1ccc(C[C@H]2NC(=O)[C@@H](Cc3ccc(NC(=N)N)cc3)NC(=O)[C@@H](CCC(N)=O)NC(=O)[C@@H](CCC(N)=O)NC(=O)[C@@H](N)Cc3cn(nn3)CCCCC(C(N)=O)NC2=O)cc1 (stereo partly shown) [QQGnfGnf] (H-[Pra][dQ][dQ][dPhe(4-guanidino)][dPhe(4-guanidino)][ξLys(N3)]-NH2; triazole 1-6)		EC50 [2]: 3000 nM; EC50 [3]: 1000 nM
LRG (F—Br): cyclic peptide with variable region LRGF-Br (SEQ ID NO:6), F—Br is bromophenylalanine (LRG[bromophenylalanine]; also: cyclic peptide, only variable region given)	noticeable worse	
LRGGnf-Az3: cyclic peptide LRGGnf (SEQ ID NO:4) with azidoornithine (OrnN3 or Az3) (LRG[Phe(4-guanidino)]; also: cyclic peptide, only variable region given, azidoornithine (Az3) modification, position not given here)	comparable to LRGGnf	
LRGGnf: cyclic peptide with variable region LRGGnf (SEQ ID NO:4) (LRG[Phe(4-guanidino)]; also: cyclic peptide, only variable region given)		binding compared to LRGDGnf, single point ELISA ([1]; FIG. 2, single point ELISA to KRAS (WT) and KRAS (G12D)): 5 times
QDNY: cyclic peptide with variable region QDNY (SEQ ID NO:14) (also: cyclic peptide, variable region only, ring closure not given here)	more so	

Source: US11414460B2, “KRAS-specific capture agents, compositions, and methods of making and using” (Institute for Systems Biology, priority 2019, dated 2022)
